Test results from US20210270842A1.

Molecular target: plasma kallikrein (human) (UniProt P03952)
Experiment: cell-based or functional assay

Sequence of plasma kallikrein (human) (P03952 20-638 limits assumed): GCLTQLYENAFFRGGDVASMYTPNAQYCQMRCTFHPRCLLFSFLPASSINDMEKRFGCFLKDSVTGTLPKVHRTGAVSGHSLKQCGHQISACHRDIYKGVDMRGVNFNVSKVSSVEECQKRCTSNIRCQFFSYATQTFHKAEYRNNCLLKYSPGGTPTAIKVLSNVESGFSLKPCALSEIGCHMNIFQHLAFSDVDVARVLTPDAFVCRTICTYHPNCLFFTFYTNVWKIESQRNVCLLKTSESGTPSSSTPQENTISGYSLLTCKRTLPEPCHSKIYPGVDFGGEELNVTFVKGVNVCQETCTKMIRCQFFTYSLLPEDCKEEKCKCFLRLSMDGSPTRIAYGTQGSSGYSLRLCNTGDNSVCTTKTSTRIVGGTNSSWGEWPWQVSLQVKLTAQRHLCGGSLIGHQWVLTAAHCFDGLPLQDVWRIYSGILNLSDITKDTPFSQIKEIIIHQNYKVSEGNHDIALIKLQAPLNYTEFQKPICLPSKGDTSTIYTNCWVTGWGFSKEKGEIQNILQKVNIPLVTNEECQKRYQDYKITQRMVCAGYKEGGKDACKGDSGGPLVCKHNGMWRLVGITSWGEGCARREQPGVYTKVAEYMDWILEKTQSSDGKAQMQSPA

IC50 for lanadelumab inhibition of 2-chain HMWK generation (FXIIa-activated citrated plasma, Western blot and sandwich ELISA): 212 nM
B1: lanadelumab (antibody, V domains shown)
VH: EVQLLESGGGLVQPGGSLRLSCAASGFTFSHYIMMWVRQAPGKGLEWVSGIYSSGGITVYADSVKGRFTISRDNSKNTLYLQMNSLRAEDTAVYYCAYRRIGVPRRDEFDIWGQGTMVTVSS
VL: DIQMTQSPSTLSASVGDRVTITCRASQSISSWLAWYQQKPGKAPKLLIYKASTLESGVPSRFSGSGSGTEFTLTISSLQPDDFATYYCQQYNTYWTFGQGTKVEI
